One block for each binder: values may come before it.
What was measured:
[1] = molecular target: T1, Recombinant Human DLL4 (R&D Systems Cat#1506-D4/CF) (human, UniProt Q9NR61 27-524); test: Multispot ECL (MSD), antigen spotted on plate, Fab 145 nM; blank spot 357
T1 construct: Bought recombinant protein; also called rHuman DLL4; delta-like protein 4

[2] = molecular target: T2, rHuman EGF R/Fc Chimera, CF (R&D Systems Cat#344-ER) (human, UniProt P00533 25-645); test: as above
T2 construct: Bought recombinant protein; also called epidermal growth factor receptor; Fc part of the bought chimera not given

[3] = molecular target: T3, rHuman HGF R/c-MET/Fc Chimera, CF (R&D Systems Cat#358-MT/CF) (human, UniProt P08581 25-932); test: as above
T3 construct: Bought recombinant protein; also called HGF R/Fc; hepatocyte growth factor receptor; Fc part of the bought chimera not given
T3 sequence (P08581 25-932, change not shown): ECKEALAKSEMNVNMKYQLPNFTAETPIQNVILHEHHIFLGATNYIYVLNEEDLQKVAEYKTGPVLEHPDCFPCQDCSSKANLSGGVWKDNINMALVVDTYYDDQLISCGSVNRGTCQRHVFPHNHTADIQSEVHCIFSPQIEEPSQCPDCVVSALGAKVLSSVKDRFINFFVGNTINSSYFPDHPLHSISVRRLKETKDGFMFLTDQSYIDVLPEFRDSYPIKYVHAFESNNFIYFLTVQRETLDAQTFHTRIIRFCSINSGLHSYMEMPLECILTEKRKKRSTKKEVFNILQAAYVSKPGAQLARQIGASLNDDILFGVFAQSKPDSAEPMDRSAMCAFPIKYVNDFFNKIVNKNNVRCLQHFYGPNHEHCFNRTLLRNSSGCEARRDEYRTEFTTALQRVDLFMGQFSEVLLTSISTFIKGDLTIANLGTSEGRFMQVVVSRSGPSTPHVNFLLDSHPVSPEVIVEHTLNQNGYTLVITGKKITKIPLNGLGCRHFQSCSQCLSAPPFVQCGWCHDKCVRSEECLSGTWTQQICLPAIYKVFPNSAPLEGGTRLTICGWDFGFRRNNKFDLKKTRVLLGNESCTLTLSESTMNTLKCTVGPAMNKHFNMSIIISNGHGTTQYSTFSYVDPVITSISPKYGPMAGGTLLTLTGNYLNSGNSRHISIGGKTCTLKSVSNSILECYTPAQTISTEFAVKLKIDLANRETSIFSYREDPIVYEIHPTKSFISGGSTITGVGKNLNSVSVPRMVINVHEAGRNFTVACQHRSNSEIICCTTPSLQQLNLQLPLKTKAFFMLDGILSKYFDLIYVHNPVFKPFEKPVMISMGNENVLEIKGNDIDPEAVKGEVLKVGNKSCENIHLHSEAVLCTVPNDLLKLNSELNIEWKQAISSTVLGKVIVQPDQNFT

[4] = molecular target: T4, rHuman IGF-1 sR, (IGF-1 sR), CF (R&D Systems Cat#391-GR) (human, UniProt P08069 31-932); test: as above
T4 construct: Bought recombinant soluble receptor; also called insulin-like growth factor-1 soluble receptor

[5] = molecular target: T1, Recombinant Human DLL4 (R&D Systems …); test: Multispot ECL (MSD), antigen spotted on plate, Fab 580 nM; blank spot 679
[6] = molecular target: T5, rHuman ErbB2/Fc Chimera, CF (R&D Systems Cat#1129-ER) (human, UniProt P04626 23-652); test: as above
T5 construct: Bought recombinant protein; also called human epidermal growth factor 2 receptor; Fc part of the bought chimera not given

[7] = molecular target: T2, rHuman EGF R/Fc Chimera, CF (R&D …); test: as above
[8] = molecular target: T3, rHuman HGF R/c-MET/Fc Chimera, CF (R&D …); test: as above
[9] = molecular target: T4, rHuman IGF-1 sR, (IGF-1 sR), CF (R&D …); test: as above
[10] = molecular target: T1, Recombinant Human DLL4 (R&D Systems …); test: Multispot ECL (MSD), antigen spotted on plate, Fab 9.1 nM; blank spot 276
[11] = molecular target: T5, rHuman ErbB2/Fc Chimera, CF (R&D …); test: as above
[12] = molecular target: T2, rHuman EGF R/Fc Chimera, CF (R&D …); test: as above
[13] = molecular target: T3, rHuman HGF R/c-MET/Fc Chimera, CF (R&D …); test: as above
[14] = molecular target: T4, rHuman IGF-1 sR, (IGF-1 sR), CF (R&D …); test: as above
[15] = molecular target: T1, Recombinant Human DLL4 (R&D Systems …); test: Multispot ECL (MSD), antigen spotted on plate, Fab 36.3 nM; blank spot 314
[16] = molecular target: T5, rHuman ErbB2/Fc Chimera, CF (R&D …); test: as above
[17] = molecular target: T2, rHuman EGF R/Fc Chimera, CF (R&D …); test: as above
[18] = molecular target: T3, rHuman HGF R/c-MET/Fc Chimera, CF (R&D …); test: as above
[19] = molecular target: T4, rHuman IGF-1 sR, (IGF-1 sR), CF (R&D …); test: as above
[20] = molecular target: T6, Recombinant Human DLL4 (R&D Systems Cat#1506-D4/CF) (human, UniProt Q9NR61 27-524); test: control in the Notch reporter assay; binding assay not described
T6 construct: bought recombinant protein; also called rHuman DLL4; delta-like protein 4

[21] = molecular target: T7, rHuman IGF-1 sR, CF (R&D Systems Cat#391-GR) (human, UniProt P08069 31-932); test: Multispot ECL
T7 construct: bought soluble receptor; also called insulin-like growth factor-1 soluble receptor

[22] = molecular target: T6, Recombinant Human DLL4 (R&D Systems …); test: Multispot ECL titration

ECL signal at 145 nM Fab [1]: 2140
ECL signal at 145 nM Fab [2]: 856
ECL signal at 145 nM Fab [3]: 1170
ECL signal at 145 nM Fab [4]: 794
ECL signal at 580 nM Fab [5]: 4420
ECL signal at 580 nM Fab [6]: 1710
ECL signal at 580 nM Fab [7]: 1630
ECL signal at 580 nM Fab [8]: 2340
ECL signal at 580 nM Fab [9]: 1360
ECL signal at 9.1 nM Fab [10]: 1030
ECL signal at 9.1 nM Fab [11]: 987
ECL signal at 9.1 nM Fab [12]: 800
ECL signal at 9.1 nM Fab [13]: 894
ECL signal at 9.1 nM Fab [14]: 788
ECL signal at 36.3 nM Fab [15]: 1400
ECL signal at 36.3 nM Fab [16]: 1030
ECL signal at 36.3 nM Fab [17]: 831
ECL signal at 36.3 nM Fab [18]: 1060
ECL signal at 36.3 nM Fab [19]: 799
B1: Fab VH4-34_IGHD7-27*01_IGHJ4*01 & V1-4_IGLJ4*01 (Fab, V domains shown)
VH: QVQLQQWGAGLLKPSETLSLTCAVYGGSFSGYYWSWIRQPPGKGLEWIGEINHSGSTNYNPSLKSRVTISVDTSKNQFSLKLSSVTAADTAVYYCARANWGDYFDYWGQGTLVTVSS
VL: QSALTQPASVSGSPGQSITISCTGTSSDVGGYNYVSWYQQHPGKAPKLMIYEVSNRPSGVSNRFSGSKSGNTASLTISGLQAEDEADYYCSSYTSSSTLFVFGGGTQLIIL
notes: Tested as a Fab made in E. coli; The heavy chain variable region was cloned into Plasmid A (CH1 constant region, His6 and Flag tags); The lambda light chain variable region was cloned into Plasmid E (lambda CL); Only the variable domains are tied to this Fab by name

binding result [20]: no binding
B2: control Fab VH6-1_IGHD6-13*01_IGHJ4*01 and V2-17_IGLJ2*01 (Fab, V domains shown)
VH: QVQLQQSGPGLVKPSQTLSLTCAISGDSVSSNSAAWNWIRQSPSRGLEWLGRTYYRSKWYNDYAVSVKSRITINPDTSKNQFSLQLNSVTPEDTAVYYCAREGYSSSWYDYFDYWGQGTLVTVSS
VL: SYELTQPPSVSVSPGQTARITCSGDALPKQYAYWYQQKPGQAPVLVIYKDSERPSGIPERFSGSSSGTTVTLTISGVQAEDEADYYCQSADSSGTYPVVFGGGTKLTVL

binding result [21]: no binding
fold binding affinity against the parent antibody [22]: 10 fold
B3: Fab VH1-46_IGHD6-6*01_IGHJ1*01 S102A/S103P/S104F & L6_IGKJ1*01 (Fab, V domains shown)
VH: QVQLVQSGAEVKKPGASVKVSCKASGYTFTSYYMHWVRQAPGQGLEWMGIINPSGGSTSYAQKFQGRVTMTRDTSTSTVYMELSSLRSEDTAVYYCAREEYAPFSAEYFQHWGQGTLVTVSS
VL: not shown
notes: Fab; also called H:APF & L:wt; APF triple mutant

Source: patent publication US20120316071A1 (published 2012)
